Measurements: the supplement of paper PMC10724198
± gives the standard deviation of the averaged measurements.

System: Saccharomyces cerevisiae
Experiment: protein stability index of tFT-peptide fusion (C-terminal peptide) (PSI (0-1 scale)); higher = more stable (slower turnover)
Settings: temperature: 30 C
Procedure: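 MPS profiling in S. cerevisiae of the yeast C-terminome library: the last 12 aa of each annotated ORF are fused to the C-terminus of a sfGFP-mCherry timer, after a GGGS linker. Cells are FACS-sorted into 8 mCherry/sfGFP bins and deep-sequenced. PSI runs from 0 (unstable) to 1 (stable); wild type and das1Δ backgrounds, two technical replicates each.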

[1] = genetic background: das1 deletion

| Sequence | protein stability index [1] | protein stability index (genetic background: wild type) |
| --- | --- | --- |
| AAELRDISQCDV [OPI8 C-terminal 12 aa] | 0.682 ± 0.024 | 0.69 ± 0.088 |
| AANAEILSKINK [POX1 C-terminal 12 aa] | 0.713 ± 0.017 | 0.683 ± 0.0089 |
| ADGNPLQALPQL [TOM40 C-terminal 12 aa] | 0.7077 ± 0.0065 | 0.666 ± 0.024 |
| AEETAVFTLPNV [GGA2 C-terminal 12 aa] | 0.7266 ± 0.0034 | 0.694 ± 0.0082 |
| AEIIDSLLEQIN [NSI1 C-terminal 12 aa] | 0.744 ± 0.019 | 0.6797 ± 0.0017 |
| AERFDNTEVLHL [STE13 C-terminal 12 aa] | 0.7011 ± 0.0037 | 0.689 ± 0.035 |
| AGADNTARLWTT [ERB1 C-terminal 12 aa] | 0.722 ± 0.014 | 0.736 ± 0.056 |
| AGTDKSQRCAIM [GIS4 C-terminal 12 aa] | 0.758 ± 0.018 | 0.695 ± 0.056 |
| AGVNSARGVLRI [SFT2 C-terminal 12 aa] | 0.6898 ± 0.0045 | 0.71 ± 0.023 |
| AIAPTSLLTPMP [YER087C-A C-terminal 12 aa] | 0.6937 ± 0.0021 | 0.733 ± 0.013 |
| AIARCALGETLL [CAR1 C-terminal 12 aa] | 0.685 ± 0.011 | 0.641 ± 0.011 |
| AKAQSQALVTGM [PCL6 C-terminal 12 aa] | 0.6806 ± 0.0011 | 0.685 ± 0.035 |
| AKKKKKRIRGFG [RRN6 C-terminal 12 aa] | 0.686 ± 0.015 | 0.671 ± 0.034 |
| ALHSEEASFHSL [AIM21 C-terminal 12 aa] | 0.709 ± 0.012 | 0.7 ± 0.021 |
| ALKLRALEKLSF [NCS6 C-terminal 12 aa] | 0.711 ± 0.014 | 0.697 ± 0.037 |
| ALLILVLGWFYR [SCS2 C-terminal 12 aa] | 0.405 ± 0.027 | 0.4 ± 0.0047 |
| ALPNWNTPYLRR [UCC1 C-terminal 12 aa] | 0.719 ± 0.015 | 0.746 ± 0.023 |
| ANHNNQRAGYFL [SIT4 C-terminal 12 aa] | 0.699 ± 0.02 | 0.652 ± 0.015 |
| ANKKARHFNNSA [VAM7 C-terminal 12 aa] | 0.687 ± 0.017 | 0.698 ± 0.019 |
| ANMAAYDKAIHC [LPD1 C-terminal 12 aa] | 0.681 ± 0.018 | 0.708 ± 0.033 |
| ANTHSSLICSKP [YBR209W C-terminal 12 aa] | 0.6854 ± 0.0039 | 0.701 ± 0.044 |

| Sequence | protein stability index [1] | protein stability index (genetic background: wild type) |
| --- | --- | --- |
| APVAAGESESSL [SRO9 C-terminal 12 aa] | 0.6991 ± 0.0048 | 0.687 ± 0.007 |
| ARNIWRLFLQKI [YLR126C C-terminal 12 aa] | 0.705 ± 0.058 | 0.168 ± 0.0098 |
| ASIGSDIVNNIF [PIN3 C-terminal 12 aa] | 0.712 ± 0.032 | 0.711 ± 0.04 |
| ASLVFPKEKQNV [APC4 C-terminal 12 aa] | 0.718 ± 0.034 | 0.6902 ± 0.00072 |
| ATTSLNNPYGFR [TOS7 C-terminal 12 aa] | 0.675 ± 0.0069 | 0.663 ± 0.03 |
| AVDYILRLFGFL [COQ2 C-terminal 12 aa] | 0.72 ± 0.013 | 0.537 ± 0.019 |
| AVGPRQTGEECR [YER088W-B C-terminal 12 aa] | 0.695 ± 0.0098 | 0.66899 ± 0.00042 |
| AYFPQKYKHKYI [PRM6 C-terminal 12 aa] | 0.689 ± 0.0077 | 0.5656 ± 0.004 |
| CERCKSELQSVH [SET6 C-terminal 12 aa] | 0.686 ± 0.0084 | 0.663 ± 0.03 |
| CEVYCSKNSCAS [YBR099C C-terminal 12 aa] | 0.6895 ± 0.0012 | 0.661 ± 0.031 |
| CFLIGSSDTTSL [OPI6 C-terminal 12 aa] | 0.7045 ± 0.0014 | 0.691 ± 0.028 |
| CIAKKVKTYWNK [YIL024C C-terminal 12 aa] | 0.68219 ± 0.00014 | 0.676 ± 0.023 |
| CIGDTDYIERYD [CDA1 C-terminal 12 aa] | 0.694 ± 0.015 | 0.685 ± 0.031 |
| CIISIVVFPTCI [BIO5 C-terminal 12 aa] | 0.286 ± 0.016 | 0.285 ± 0.0088 |
| CIVNLASDTISL [YOL150C C-terminal 12 aa] | 0.709 ± 0.0077 | 0.667 ± 0.01 |
| CKATSLLLIPEG [YBL108W C-terminal 12 aa] | 0.675 ± 0.018 | 0.659 ± 0.021 |
| CLFRYKQLPRRV [MCH2 C-terminal 12 aa] | 0.69 ± 0.073 | 0.687 ± 0.029 |
| CLQTESETDIET [LIF1 C-terminal 12 aa] | 0.661 ± 0.0085 | 0.674 ± 0.013 |
| CLRKSPPFVHNT [YMR084W C-terminal 12 aa] | 0.6939 ± 0.0044 | 0.703 ± 0.022 |
| CTIQKMREKANT [YNL028W C-terminal 12 aa] | 0.677 ± 0.027 | 0.723 ± 0.062 |
| CVDCGTVVNNFR [LAF1 C-terminal 12 aa] | 0.723 ± 0.019 | 0.688 ± 0.025 |

| Sequence | protein stability index [1] | protein stability index (genetic background: wild type) |
| --- | --- | --- |
| CVWESMSNWLQK [YEL034C-A C-terminal 12 aa] | 0.7238 ± 0.00042 | 0.724 ± 0.015 |
| DAAIVKKYKNKT [NUP57 C-terminal 12 aa] | 0.687 ± 0.025 | 0.692 ± 0.033 |
| DDDEDGYNPYTL [PAP2 C-terminal 12 aa] | 0.7215 ± 0.0049 | 0.697 ± 0.0073 |
| DDGTKNFIFKNK [ECM23 C-terminal 12 aa] | 0.7072 ± 0.0034 | 0.706 ± 0.031 |
| DDNDDGDDDDDW [MYO3 C-terminal 12 aa] | 0.68701 ± 0.00044 | 0.7087 ± 0.0034 |
| DDNDDSDEREIW [UBR1 C-terminal 12 aa] | 0.699 ± 0.031 | 0.71 ± 0.029 |
| DDNDTSAYYEDN [GSY1 C-terminal 12 aa] | 0.689 ± 0.0083 | 0.803 ± 0.073 |
| DEASGTPDEDML [GRR1 C-terminal 12 aa] | 0.6796 ± 0.0046 | 0.693 ± 0.034 |
| DEERPSKKPKVE [POB3 C-terminal 12 aa] | 0.7314 ± 0.0054 | 0.745 ± 0.02 |
| DEGVSLVFEVPN [SQT1 C-terminal 12 aa] | 0.683 ± 0.02 | 0.677 ± 0.012 |
| DENRHSIRIPFN [USB1 C-terminal 12 aa] | 0.704 ± 0.015 | 0.688 ± 0.013 |
| DFPHEAVVREML [TVP18 C-terminal 12 aa] | 0.7167 ± 0.0023 | 0.6914 ± 0.0026 |
| DFQNCFPRQRIL [DFP2 C-terminal 12 aa] | 0.7035 ± 0.0037 | 0.2848 ± 0.0028 |
| DFVDMYQTEHSG [MTF1 C-terminal 12 aa] | 0.712 ± 0.0088 | 0.7301 ± 0.0034 |
| DFVYNEEDFEKL [NOT5 C-terminal 12 aa] | 0.718 ± 0.015 | 0.681 ± 0.014 |
| DGKSVNKYGAKK [GUS1 C-terminal 12 aa] | 0.6798 ± 0.0063 | 0.699 ± 0.029 |
| DGKVIYELEDKE [GET3 C-terminal 12 aa] | 0.727 ± 0.021 | 0.6753 ± 0.0058 |
| DGSGKYFLKHDS [KTR2 C-terminal 12 aa] | 0.706 ± 0.0039 | 0.708 ± 0.04 |
| DHKVGAQVSYKY [MAD2 C-terminal 12 aa] | 0.71 ± 0.0075 | 0.675 ± 0.017 |
| DIGKKKYSHSSN [RER1 C-terminal 12 aa] | 0.673 ± 0.043 | 0.686 ± 0.049 |
| DKEQQQQQQQQP [ZDS1 C-terminal 12 aa] | 0.702 ± 0.0076 | 0.708 ± 0.032 |

| Sequence | protein stability index [1] | protein stability index (genetic background: wild type) |
| --- | --- | --- |
| DKEVLHVKADSL [FTR1 C-terminal 12 aa] | 0.7131 ± 0.0063 | 0.7 ± 0.047 |
| DLAYQYVRALEL [SRB2 C-terminal 12 aa] | 0.683 ± 0.013 | 0.673 ± 0.0094 |
| DLDLDLFDPDDF [MED4 C-terminal 12 aa] | 0.7055 ± 0.0036 | 0.684 ± 0.044 |
| DLSSFFNYRSVQ [SPH1 C-terminal 12 aa] | 0.75 ± 0.015 | 0.7374 ± 0.0021 |
| DLSTRIYSLAYE [ELP2 C-terminal 12 aa] | 0.71 ± 0.051 | 0.665 ± 0.011 |
| DLYTEEFLKEGK [PRP39 C-terminal 12 aa] | 0.683 ± 0.035 | 0.6685 ± 0.0064 |
| DNFNSAPSYFSK [MIG3 C-terminal 12 aa] | 0.6975 ± 0.0012 | 0.682 ± 0.052 |
| DNGRIIITGIPN [ECM5 C-terminal 12 aa] | 0.681 ± 0.024 | 0.675 ± 0.033 |
| DNYLKYIKALLL [MSH2 C-terminal 12 aa] | 0.71 ± 0.029 | 0.445 ± 0.026 |
| DPERQNNSNFYN [SMC6 C-terminal 12 aa] | 0.702 ± 0.052 | 0.686 ± 0.026 |
| DPFLYSCSRVAF [YDL196W C-terminal 12 aa] | 0.729 ± 0.038 | 0.702 ± 0.012 |
| DQIYWFNHFSNV [AIM2 C-terminal 12 aa] | 0.7141 ± 0.0021 | 0.696 ± 0.027 |
| DRKRRKLLWYQA [MRPL20 C-terminal 12 aa] | 0.718 ± 0.045 | 0.2489 ± 0.00046 |
| DSDNAAPLHDEL [KRE5 C-terminal 12 aa] | 0.687 ± 0.017 | 0.685 ± 0.048 |
| DSEDDNDTSSES [PRP38 C-terminal 12 aa] | 0.682 ± 0.026 | 0.6733 ± 0.0012 |
| DSMRGNSRNNMF [EBS1 C-terminal 12 aa] | 0.7083 ± 0.0062 | 0.717 ± 0.021 |
| DSTAPKPIPGKE [YKL030W C-terminal 12 aa] | 0.68 ± 0.0037 | 0.663 ± 0.009 |
| DTSLYRYRSYGY [PUF2 C-terminal 12 aa] | 0.7007 ± 0.0045 | 0.683 ± 0.033 |
| DTSPAQEQSPAN [ARG80 C-terminal 12 aa] | 0.695 ± 0.026 | 0.709 ± 0.013 |
